# Experimental data reported in the PETadex activity labels (doi:10.1016/j.bbalip.2005.11.003).
# B1: unnamed (protein)
# chain: MWLLPLVLTSLASSATWAGQPASPPVVDTAQGRVLGKYVSLEGLAQPVAVFLGVPFAKPPLGSLRFAPPQPAEPWSFVKNTTSYPPMCCQDPVVEQMTSDLFTNGKERLTLEFSEDCLYLNIYTPADLTKRGRLPVMVWIHGGGLVLGGAPMYDGVVLAAHENVVVVAIQYRLGIWGFFSTGDEHSRGNWGHLDQVAALHWVQENIANFGGDPGSVTIFGESAGGESVSVLVLSPLAKNLFHRAISESGVALTVALVRKDMKAAAKQIAVLAGCKTTTSAVFVHCLRQKSEDELLDLTLKMKFLTLDFHGDQRESHPFLPTVVDGVLLPKMPEEILAEKDFNTVPYIVGINKQEFGWLLPTMMGFPLSEGKLDQKTATSLLWKSYPIANIPEELTPVATDKYLGGTDDPVKKKDLFLDLMGDVVFGVPSVTVARQHRDAGAPTYMYEFQYRPSFSSDKKPKTVIGDHGDEIFSVFGFPLLKGDAPEEEVSLSKTVMKFWANFARSGNPNGEGLPHWPMYDQEEGYLQIGVNTQAAKRLKGEEVAFWNDLLSKEAAKKPPKIKHAEL
# B2: unnamed (protein)
# chain: MLHLVCLALLCHVARGLPTQASHNAQPVINLGYARYQGVRLEAGVDEFLGMRYASPPIGDLRFRAPQDPPANQTLQSATEYGPICIGLDEEESPGDISEDCLFINVFKPSTATSQSKLPVWLFIQGGGYAENSNANYNGTQVIQASDDVIVFVTFNYRVGALGFLASEKVRQNGDLNAGLLDQRKALRWVKQYIEQFGGDPDHIVIHGVSAGAGSVAYHLSAYGGKDEGLFIGAIVESSFWPTQRTVSEMEFQFERFVNDTGCSSARDSLECLREQDIATIQKGNTGSPFPGGSSSPLPDWYFLPVTDGSLVPDELYNAFDAGNFIKVPVLVGDDTDEGSNFAYNASSSADVSRFFKNNYPNLTSQQLNEINQVYPRGKLLPRHAAYFGASSAAYGDATFTCPGNHVASSAARYLPNSVWNYRVNIIDESNIAGGIGVPHTFELPAIFGAGSTGTLSSDSSYLTYNAAIIPVTMHYFISFVQTLNPNTYRYATAPEWNTWGNGQRLRLQTNDTAMEAVPESSLQDCAFWKSLTVPMEV
# B3: unnamed (protein)
# chain: MLDMPIDPVYYQLAEYFDSLPKFDQFSSAREYREAINRIYEERNRQLSQHERVERVEDRTIKGRNGDIRVRVYQQKPDSPVLVYYHGGGFVICSIESHDALCRRIARLSNSTVVSVDYRLAPEHKFPAAVYDCYDATKWVAENAEELRIDPSKIFVGGDSAGGNLAAAVSIMARDSGEDFIKHQILIYPVVNFVAPTPSLLEFGEGLWILDQKIMSWFSEQYFSREEDKFNPLASVIFADLENLPPALIITAEYDPLRDEGEVFGQMLRRAGVEASIVRYRGVLHGFINYYPVLKAARDAINQIAALLVFD
# B4: unnamed (protein)
# chain: MLPLWTLSLLLGAVAGKEVCYERLGCFSDDSPWSGITERPLHILPWSPKDVNTRFLLYTNENPNNFQEVAADSSSISGSNFKTNRKTRFIIHGFIDKGEENWLANVCKNLFKVESVNCICVDWKGGSRTGYTQASQNIRIVGAEVAYFVEFLQSAFGYSPSNVHVIGHSLGAHAAGEAGRRTNGTIGRITGLDPAEPCFQGTPELVRLDPSDAKFVDVIHTDGAPIVPNLGFGMSQVVGHLDFFPNGGVEMPGCKKNILSQIVDIDGIWEGTRDFAACNHLRSYKYYTDSIVNPDGFAGFPCASYNVFTANKCFPCPSGGCPQMGHYADRYPGKTNDVGQKFYLDTGDASNFARWRYKVSVTLSGKKVTGHILVSLFGNKGNSKQYEIFKGTLKPDSTHSNEFDSDVDVGDLQMVKFIWYNNVINPTLPRVGASKIIVETNVGKQFNFCSPETVREEVLLTLTPC
# Substrate: p-NP-C4
# Conditions: pH 7; 25 °C
Protein,Km [µM],kcat [s⁻¹],kcat/Km [M⁻¹ s⁻¹]
B1,80,18,225000
B3,40,140,3.5e+06

# Substrate: triacetin
# Conditions: pH 7; 25 °C
Protein,Km [µM],kcat [s⁻¹],kcat/Km [M⁻¹ s⁻¹]
B1,3000,60,20000
B2,15000,265,17700
B3,10000,40,4000
B4,190000,8,42.1

# Substrate: tributyrin
# Conditions: pH 7; 25 °C
Protein,Km [µM],kcat [s⁻¹],kcat/Km [M⁻¹ s⁻¹]
B1,50,70,1.4e+06
B3,50,95,1.9e+06
B4,400,7890,1.97e+07

# Substrate: tripropionin
# Conditions: pH 7; 25 °C
Protein,Km [µM],kcat [s⁻¹],kcat/Km [M⁻¹ s⁻¹]
B1,300,50,167000
B2,350,60,171000
B3,300,110,367000
B4,8000,3320,415000

# Substrate: vinyl acetate
# Conditions: pH 7; 25 °C
Protein,Km [µM],kcat [s⁻¹],kcat/Km [M⁻¹ s⁻¹]
B1,4000,315,78800
B2,3000,400,133000
B3,4000,50,12500
B4,315000,170,540

# Substrate: vinyl butyrate
# Conditions: pH 7; 25 °C
Protein,Km [µM],kcat [s⁻¹],kcat/Km [M⁻¹ s⁻¹]
B1,2000,460,230000
B2,2000,25,12500
B3,2500,210,84000
B4,25000,625,25000

# Substrate: vinyl propionate
# Conditions: pH 7; 25 °C
Protein,Km [µM],kcat [s⁻¹],kcat/Km [M⁻¹ s⁻¹]
B1,5000,295,59000
B2,3000,160,53300
B3,7000,200,28600
B4,75000,800,10700

# Substrate: vinyl laurate
# Conditions: pH 7; 25 °C
Protein,Km [µM],kcat [s⁻¹],kcat/Km [M⁻¹ s⁻¹]
B4,4000,375,93800
